Results: patent US20090304651A1 (published 2009)
Where a chain is given by its changes, count along the chain named. Names and notes keep the numbering of the source. Values belong to the binder of their own block, whether it stands above or below them.

Tests used:
[1] = target: T1, recombinant human IGF-II (Insulin-like Growth Factor II) (human, UniProt P01344 25-91, biotinylated (Biotinyl-IGF-II, GroPep) where immobilised in SPR, site not stated; not biotinylated in ITC and as SPR analyte); assay: SPR, IGF-II immobilised, kinetic fit
T1 construct: also called IGF2; IGF-2
Procedure: (§1) Kinetic analysis by Surface Plasmon Resonance (SPR) was conducted on a BIAcore 3000 biosensor (BIAcore, Uppsala, Sweden) at 25° C. in HBS-EP (10 mM HEPES, pH 7.4, 150 mM NaCl, 3 mM EDTA, 0.005% surfactant P20) at a flow rate of 40 μl/min. […] Kinetic experiments consisted of a two minute injection of analyte followed by a 100 s dissociation phase in running buffer, after which the binding surface was regenerated with a 2 minute injection of 2 M MgCl₂. A blank flow cell was used for in-line reference subtraction of changes due to differences in refractive index of running buffer versus sample and a buffer-only injection was used to subtract instrument noise and drift. Injections were performed in duplicate for each concentration and in a randomised order. Kinetic parameters were determined by global fitting of sensorgrams to a two-state (conformational change) binding model using BIAevaluation software version 4.0.1. In all cases the minor component made an insignificant contribution to the overall affinity and as such only the kinetic parameters of the major binding component were used. For each interaction the dissociation affinity constant (KD) was also calculated by fitting of the response of each concentration at equilibrium to a steady-state affinity model using BIAevaluation. In order to investigate the influence of ionic strength, kinetic experiments were conducted in HBS-EP running buffers containing the desired NaCl concentration. In each case, analyte samples were made up in the appropriate running buffer prior to injection.

[2] = target: T1, recombinant human IGF-II (Insulin-like …); assay: SPR, IGF-II immobilised, steady state
Procedure: as §1, with “In order to investigate the influence of ionic strength, kinetic experiments were conducted in HBS-EP running buffers containing the desired NaCl concentration. In each case, analyte samples were made up in the appropriate running buffer prior to injection.” left out

[3] = target: T1, recombinant human IGF-II (Insulin-like …); assay: SPR

T1 sequence (P01344 25-91 limits assumed): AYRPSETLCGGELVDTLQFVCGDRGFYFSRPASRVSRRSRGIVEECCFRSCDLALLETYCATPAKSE

Kd [1]: 102 nM
koff [1]: 0.053 s⁻¹
kon [1]: 525000 M⁻¹ s⁻¹
Kd [2]: 103 nM
B1: wild type IGF2R domain 11 (amino acids 1511-1650) with C-terminal His6 tag, from Pichia pastoris (receptor)
chain: NEHDDCQVTNPSTGHLFDLSSLSGRAGFTAAYSEKGLVYMSICGENENCPPGVGACFGQTRISVGKANKRLRYVDQVLQLVYKDGSPCPSKSGLSYKSVISFVCRPEAGPTNRPMLISLDKQTCTLFFSWHTPLACEQATHHHHHH
notes: also called WT; wild type domain 11

relative affinity increase over wild type [3]: ~2.5 fold
B2: IGF2R domain 11 E1544A (amino acids 1511-1650, C-terminal His6 tag, from Pichia pastoris) (receptor)
chain: B1 chain with E34A
